Measurements taken from FireProtDB.
Values joined by “and” are separate entries in the source; they are usually repeats but may differ in a detail not shown here. Equal values may be shown once.

Conditions: whole UniProt chain shown
[1] = Escherichia coli (strain K12), pH 7.5, 20 °C, GdnHCl, CD, HEPES 5 mM, NiCl2 5 mM, reversible: Yes
[2] = Escherichia coli (strain K12), pH 7.8, 23 °C, Urea, Fluorescence, Tris-HCl 10 mM, NaCl 100 mM, reversible: yes
[3] = Gallus gallus, pH 7.4, 25 °C, GdnHCl, CD, Tris 50 mM, KCl 100 mM, reversible: yes
[4] = Escherichia coli, pH 5, 23 °C, Urea, DSC, Acetic acid/MES/Tris 50 mM/50 mM/100 mM/, reversible: yes
[5] = Escherichia coli, pH 8, Thermal, DSC, Tris/MES/Acetic acid 100 mM/50 mM/50 mM/, reversible: yes

B1: Peptide deformylase wild type, P0A6K3 (protein)
chain: MSVLQVLHIPDERLRKVAKPVEEVNAEIQRIVDDMFETMYAEEGIGLAATQVDIHQRIIVIDVSENRDERLVLINPELLEKSGETGIEEGCLSIPEQRALVPRAEKVKIRALDRDGKPFELEADGLLAICIQHEMDHLVGKLFMDYLSPLKQQRIRQKVEKLDRLKARA
denaturant m value [1]: 1.8 kcal/mol/M | unfolding free energy [1]: 4.4 kcal/mol

B2: Phosphoglycerate kinase wild type, P18912 (protein)
chain: MNKKTIRDVDVRGKRVFCRVDFNVPMEQGAITDDTRIRAALPTIRYLIEHGAKVILASHLGRPKGKVVEELRLDAVAKRLGELLERPVAKTNEAVGDEVKAAVDRLNEGDVLLLENVRFYPGEEKNDPELAKAFAELADLYVNDAFGAAHRAHASTEGIAHYLPAVAGFLMEKELEVLGKALSNPDRPFTAIIGGAKVKDKIGVIDNLLEKVDNLIIGGGLAYTFVKALGHDVGKSLLEEDKIELAKSFMEKAKEKGVRFYMPVDVVVADRFANDANTKVVPIDAIPADWSALDIGPKTRELYRDVIRESKLVVWNGPMGVFEMDAFAHGTKAIAEALAEALDTYSVIGGGDSAAAVEKFGLADKMDHISTGGGASLEFMEGKQLPGVVALEDK
unfolding free energy (Geobacillus stearothermophilus, pH 7.2, 25 °C, GdnHCl, Fluorescence, TEA 50 mM, reversible: no): 13.2 kcal/mol and 9.3 kcal/mol | unfolding free energy (Geobacillus stearothermophilus, pH 7.2, 25 °C, GdnHCl, Fluorescence, tri-ethanolamine 50 mM, reversible: Yes): 8.76 kcal/mol

B3: Co-chaperonin GroES wild type, P0A6F9 (protein)
chain: MNIRPLHDRVIVKRKEVETKSAGGIVLTGSAAAKSTRGEVLAVGNGRILENGEVKPLDVKVGDIVIFNDGYGVKSEKIDNEEVLIMSESDILAIVEA
denaturant m value [2]: 1.83 kcal/mol/M | unfolding free energy [2]: 5.77 kcal/mol

B4: Outer membrane porin F wild type, P02931 (protein)
chain: MMKRNILAVIVPALLVAGTANAAEIYNKDGNKVDLYGKAVGLHYFSKGNGENSYGGNGDMTYARLGFKGETQINSDLTGYGQWEYNFQGNNSEGADAQTGNKTRLAFAGLKYADVGSFDYGRNYGVVYDALGYTDMLPEFGGDTAYSDDFFVGRVGGVATYRNSNFFGLVDGLNFAVQYLGKNERDTARRSNGDGVGGSISYEYEGFGIVGAYGAADRTNLQEAQPLGNGKKAEQWATGLKYDANNIYLAANYGETRNATPITNKFTNTSGFANKTQDVLLVAQYQFDFGLRPSIAYTKSKAKDVEGIGDVDLVNYFEVGATYYFNKNMSTYVDYIINQIDSDNKLGVGSDDTVAVGIVYQF
Tm (Escherichia coli (strain K12), pH 7.5, Thermal, CD, Tris 50mM): 79.3 °C

B5: Glutamine-binding periplasmic protein wild type, P0AEQ3 (protein)
chain: MKSVLKVSLAALTLAFAVSSHAADKKLVVATDTAFVPFEFKQGDKYVGFDVDLWAAIAKELKLDYELKPMDFSGIIPALQTKNVDLALAGITITDERKKAIDFSDGYYKSGLLVMVKANNNDVKSVKDLDGKVVAVKSGTGSVDYAKANIKTKDLRQFPNIDNAYMELGTNRADAVLHDTPNILYFIKTAGNGQFKAVGDSLEAQQYGIAFPKGSDELRDKVNGALKTLRENGTYNEIYKKWFGTEPK
Tm (Escherichia coli (strain K12), pH 8.3, Thermal, Absorbance, Tris-HCl 10 mM): 63.1 °C and 66.2 °C

B6: Aspartate carbamoyltransferase catalytic subunit wild type, P0A786 (protein)
chain: MANPLYQKHIISINDLSRDDLNLVLATAAKLKANPQPELLKHKVIASCFFEASTRTRLSFETSMHRLGASVVGFSDSANTSLGKKGETLADTISVISTYVDAIVMRHPQEGAARLATEFSGNVPVLNAGDGSNQHPTQTLLDLFTIQETQGRLDNLHVAMVGDLKYGRTVHSLTQALAKFDGNRFYFIAPDALAMPQYILDMLDEKGIAWSLHSSIEEVMAEVDILYMTRVQKERLDPSEYANVKAQFVLRASDLHNAKANMKVLHPLPRVDEIATDVDKTPHAWYFQQAGNGIFARQALLALVLNRDLVL
unfolding free energy (Escherichia coli (strain K12), pH 8.3, 7.5 °C, Urea, Absorbance, HEPES 0.1 M, reversible: yes): 2 kcal/mol

B7: Head completion protein wild type, P68660 (protein)
chain: MTRQEELAAARAALHDLMTGKRVATVQKDGRRVEFTATSVSDLKKYIAELEVQTGMTQRRRGPAGFYV
unfolding free energy (Escherichia phage lambda, pH 8, 25 °C, Urea, CD, Tris 10 mM, reversible: yes): 2.91 kcal/mol and 3.27 kcal/mol | Tm (Escherichia phage lambda, pH 8, Thermal, CD, Tris 10 mM, reversible: yes): 71.6 °C and 71.8 °C

B8: Apolipoprotein A-I wild type, P08250 (protein)
chain: MRGVLVTLAVLFLTGTQARSFWQHDEPQTPLDRIRDMVDVYLETVKASGKDAIAQFESSAVGKQLDLKLADNLDTLSAAAAKLREDMAPYYKEVREMWLKDTEALRAELTKDLEEVKEKIRPFLDQFSAKWTEELEQYRQRLTPVAQELKELTKQKVELMQAKLTPVAEEARDRLRGHVEELRKNLAPYSDELRQKLSQKLEEIREKGIPQASEYQAKVMEQLSNLREKMTPLVQEFRERLTPYAENLKNRLISFLDELQKSVA
unfolding free energy (Gallus gallus, pH 7.4, 20 °C, GdnHCl, Fluorescence, Tris 50 mM, KCl 100 mM, reversible: yes): 2.93 kcal/mol | denaturant m value [3]: 2.78 kcal/mol/M | unfolding free energy [3]: 1.86 kcal/mol

B9: Ribose import binding protein RbsB wild type, P02925 (protein)
chain: MNMKKLATLVSAVALSATVSANAMAKDTIALVVSTLNNPFFVSLKDGAQKEADKLGYNLVVLDSQNNPAKELANVQDLTVRGTKILLINPTDSDAVGNAVKMANQANIPVITLDRQATKGEVVSHIASDNVLGGKIAGDYIAKKAGEGAKVIELQGIAGTSAARERGEGFQQAVAAHKFNVLASQPADFDRIKGLNVMQNLLTAHPDVQAVFAQNDEMALGALRALQTAGKSDVMVVGFDGTPDGEKAVNDGKLAATIAQLPDQIGAKGVETADKVLKGEKVQAKYPVDLKLVVKQ
unfolding free energy (Escherichia coli (strain K12), pH 7.7, 25 °C, GdnHCl, Fluorescence, HEPES 10 mM, reversible: yes): 5.1 kcal/mol

B10: Dihydrofolate reductase type 2 wild type, P00383 (protein)
chain: MERSSNEVSNPVAGNFVFPSNATFGMGDRVRKKSGAAWQGQIVGWYCTNLTPEGYAVESEAHPGSVQIYPVAALERIN
denaturant m value [4]: 1.46 kcal/mol/M | denaturant midpoint (higher = more stable) [4]: 3.63 M | unfolding free energy [4]: 13.3 kcal/mol | unfolding free energy (Escherichia coli, pH 5, 30 °C, GdnHCl, CD, Acetic acid/MES/Tris 50 mM/50 mM/100 mM/, reversible: yes): 15.5 kcal/mol | unfolding free energy (Escherichia coli, pH 5, 30 °C, GdnHCl, Fluorescence, Acetic acid/MES/Tris 50 mM/50 mM/100 mM/, reversible: yes): 13.5 kcal/mol | unfolding free energy (Escherichia coli, pH 8, 30 °C, GdnHCl, CD, Tris/MES/Acetic acid 100 mM/50 mM/50 mM/, reversible: yes): 9.63 kcal/mol | Tm [5]: 71 °C | unfolding enthalpy (calorimetric) [5]: 307 kcal/mol

B11: ATP-dependent 6-phosphofructokinase isozyme 2 wild type, P06999 (protein)
chain: MVRIYTLTLAPSLDSATITPQIYPEGKLRCTAPVFEPGGGGINVARAIAHLGGSATAIFPAGGATGEHLVSLLADENVPVATVEAKDWTRQNLHVHVEASGEQYRFVMPGAALNEDEFRQLEEQVLEIESGAILVISGSLPPGVKLEKLTQLISAAQKQGIRCIVDSSGEALSAALAIGNIELVKPNQKELSALVNRELTQPDDVRKAAQEIVNSGKAKRVVVSLGPQGALGVDSENCIQVVPPPVKSQSTVGAGDSMVGAMTLKLAENASLEEMVRFGVAAGSAATLNQGTRLCSHDDTQKIYAYLSR
unfolding free energy (Escherichia coli (strain K12), pH 7.8, 20 °C, GdnHCl, Activity, Tris 50 mM, Magnesiun chloride 5 mM, reversible: Yes): 12.1 kcal/mol | unfolding free energy (Escherichia coli (strain K12), pH 7.8, 20 °C, GdnHCl, CD, Tris 50 mM, Magnesiun chloride 5 mM, reversible: Yes): 12.2 kcal/mol | unfolding free energy (Escherichia coli (strain K12), pH 7.8, 20 °C, GdnHCl, Fluorescence, Tris 50 mM, Magnesiun chloride 5 mM, reversible: Yes): 11.9 kcal/mol

B12: Colicin-A wild type, Q47108 (protein)
chain: VAEKAKDERELLEKTSELIAGMGDKIGEHLGDKYKAIAKDIADNIKNFQGKTIRSFDDAMASLNKITANPAMKINKADRDALVNAWKHVDAQDMANKLGNLSKAFKVADVVMKVEKVREKSIEGYETGNWGPLMLEVESWVLSGIASSVALGIFSATLGAYALSLGVPAIAVGIAGILLAAVVGALIDDKFADALNNEIIRPAH
Tm (Escherichia coli, pH 3, Thermal, DSC, Na2HPO4-citrate 30 mM, reversible: no): 39 °C | Tm (Escherichia coli, pH 3.5, Thermal, DSC, Na2HPO4-citrate 30 mM, reversible: no): 49 °C | Tm (Escherichia coli, pH 4, Thermal, DSC, Na2HPO4-citrate 30 mM, reversible: no): 56 °C | Tm (Escherichia coli, pH 7, Thermal, DSC, Na2HPO4-citrate 30 mM, reversible: no): 69 °C | Tm (Escherichia coli, pH 8, Thermal, DSC, Na2HPO4-citrate 30 mM, reversible: no): 67 °C
